According to publication PMC3897518:

Biological target: VP11-His (pET-28b/VP11-His) (White spot syndrome virus (WSSV-TW strain))
Assay: cross-linking; VP11-His from clear E. coli lysate held on Ni-NTA beads, washed, 0.05% glutaraldehyde in PBS passed through the column, eluted with 250 mM imidazole, SDS-PAGE and anti-His immunoblot

In the case of “VP11-His (pET-28b/VP11-His) (natural protein)”, the stoichiometry N is reported as 2.
